This is an account of results in patent US20090104177A1, “PEPTIDES FOR INHIBITING THE INTERACTION OF PROTEIN KINASE A AND PROTEIN KINASE A ANCHOR PROTEINS” (FORSCHUNGSVERBUND BERLIN E.V., priority 2004, published 2009).

For assay [1], the target named is T1, regulatory RIIβ subunit of PKA (rat) (rat, UniProt P12369 1-416, 32P-labelled with the catalytic subunit of PKA when used as probe in the RII overlay experiments).
T1 construct: Radiolabelled probe in RII overlays; format in the surface plasmon resonance measurements is not described; also called RIIβ subunit of PKA from rats
T1 sequence (P12369 whole entry): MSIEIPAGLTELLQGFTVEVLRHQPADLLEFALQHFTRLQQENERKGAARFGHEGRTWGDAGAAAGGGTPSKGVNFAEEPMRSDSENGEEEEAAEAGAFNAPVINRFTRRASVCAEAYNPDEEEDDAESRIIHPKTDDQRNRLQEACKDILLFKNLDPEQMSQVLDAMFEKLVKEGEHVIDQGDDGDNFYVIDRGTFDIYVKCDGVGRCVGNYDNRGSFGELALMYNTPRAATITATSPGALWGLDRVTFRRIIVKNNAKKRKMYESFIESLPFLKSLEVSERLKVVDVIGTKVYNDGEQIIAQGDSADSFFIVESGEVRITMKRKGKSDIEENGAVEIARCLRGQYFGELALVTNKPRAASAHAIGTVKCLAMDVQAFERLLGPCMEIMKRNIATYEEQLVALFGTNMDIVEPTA
Kind of assay: RII overlay: SPOT peptides on membrane, probe 32P-labelled RIIβ, phosphoimager.

For assay [2], the target named is T2, regulatory RIIα subunit of PKA (human) (human, UniProt P13861 1-404, 32P-labelled with the catalytic subunit of PKA when used as probe in the RII overlay experiments).
T2 construct: Radiolabelled probe in RII overlays; format in the surface plasmon resonance measurements is not described; also called human RIIα
T2 sequence (P13861 whole entry): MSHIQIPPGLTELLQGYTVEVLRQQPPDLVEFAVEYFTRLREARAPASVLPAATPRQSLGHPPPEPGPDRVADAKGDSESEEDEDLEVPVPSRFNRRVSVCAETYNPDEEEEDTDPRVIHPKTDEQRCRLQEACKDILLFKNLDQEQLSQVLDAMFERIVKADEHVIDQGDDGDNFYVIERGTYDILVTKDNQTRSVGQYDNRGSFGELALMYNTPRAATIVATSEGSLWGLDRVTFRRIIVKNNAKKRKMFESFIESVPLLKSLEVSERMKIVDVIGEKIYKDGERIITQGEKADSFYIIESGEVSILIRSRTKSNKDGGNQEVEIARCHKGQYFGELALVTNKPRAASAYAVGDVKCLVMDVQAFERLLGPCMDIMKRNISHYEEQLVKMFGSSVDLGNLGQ
Kind of assay: RII overlay: SPOT peptides on membrane, probe 32P-labelled RIIα, phosphoimager.

Turning to EPEDAELVRLSKRLVENAVLKAVQQYLEETQ (also called Akap18delta-RI; No. AA) [AKAP18δ-RI], the binding result in assay [1] and in assay [2] was “binds” in each case.
